Here are results for 10 molecules from patent US20220125947A1 (published 2022).

The labels stand for the following.
T1: T cell receptor (TCR) Vγ9 (TRGV9) (human, UniProt Q99603 21-122)
T1 chain (looked up): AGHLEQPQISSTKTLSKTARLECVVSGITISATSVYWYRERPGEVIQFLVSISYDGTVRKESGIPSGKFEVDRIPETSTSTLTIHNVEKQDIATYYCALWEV

T2: T cell receptor (TCR) Vγ9 (TRGV9) (human, UniProt Q99603 21-122)
T2 sequence (looked up): T1 chain (looked up)

B1: VG9B69 (antibody, human IgG1, kappa, V domains shown)
VH: EVQLVESGGGLVKPGGSLRLSCAASGFTFSSYDINWVRQAPGKGLEWVSSITSSSYYIYYADSVKGRFTISRDNAKNSLYLQMNSLRAEDTAVYYCARDLGVRGVDYYYYGLDVWGQGTMVTVSS
VL: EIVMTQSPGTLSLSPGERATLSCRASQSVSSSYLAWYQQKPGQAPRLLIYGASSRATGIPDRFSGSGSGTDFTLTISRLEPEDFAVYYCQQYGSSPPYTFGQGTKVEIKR
B2: VG9B463 (antibody, human IgG1, lambda, V domains shown)
VH: EVQLVESGGGLVKPGGSLRLSCSASGFTFSNYDMNWVRQAPGKGLEWVSSISSSSSYIYYADSVKGRFTISRDNAKNSLYLQMNSLRAEDTAVYHCARDVGVTTDYYYYGMDVWGQGTTVTVSS
VL: QPVLTQSSSASGTPGQRVTISCSGSSSNIGSNTVNWYQQFPGTAPKLLIYTNTQRPSGVPDRFSGSKSGTLVSLAISGLQSEDEADYYCAAWDDSLNAWVFGGGTKLTVLG
B3: VG9B430 (antibody, human IgG1, kappa, V domains shown)
VH: B2 VH with V5L, N31S, T119M
VL: EIVLTQSPGTLSLSPGDRATLSCRASQSVASSYLAWYQQKPGQSPRLLIYGASSRATGIPDRFSGSGSGTDFTLTISRLEPEDFAVYYCQQYGSSPPYTFGQGTKLEIKR
B4: VG9B133 (antibody, human IgG1, kappa, V domains shown)
VH: EVQLVESGGGLVKPGGSLRLSCAAAGFTFSNYDMNWVRQVPGKGLEWVSSISSSSSYIYYADSVKGRFTISRDNAKNSLYLQMNTLRAEDTAVYYCARDLGITGTTMDYYYGMDVWGQGTMVTVSS
VL: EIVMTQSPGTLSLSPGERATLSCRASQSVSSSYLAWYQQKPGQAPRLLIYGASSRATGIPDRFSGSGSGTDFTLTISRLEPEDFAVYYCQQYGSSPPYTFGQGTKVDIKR
B5: VG9B98 (antibody, human IgG1, kappa, V domains shown)
VH: EVQLVQSGGDLVKSGGSLRLSCAASGFTFSSYSMYWVRQAPGKGLEWVSSIGSSSTYIFYADSVKGRFTISRDNAMTSLYLQMNRLGAEDSAVYYCARDGELGPFEYWGQGTLVTVSS
VL: EIVLTQSPGTLSLSPGERATLSCRASQSVSTSYLAWFQQKPGQAPRLLIFGTSSRATGIPDRFSGSGSGTDFTLTISRLEPEDFAVYHCLQYGRSPLTFGGGTKVDIKR
B6: VG9B104 (antibody, human IgG1, kappa, V domains shown)
VH: EVQLVESGGGLVKPGGSLRLSCAASGFTFSVYSMNWVRQAPGKGLEWVSSIGSSSSYIFYADSVKGRFTISRDNAKNSLYLQMNSLRAEDTAVYYCGRDHDYGGLDYWGQGTLVTVSS
VL: B5 VL with T31S, F37Y, F50Y, T52P, S54N, G58D, S66T, H88Y, L90Q, D106E
B7: VG9B469 (antibody, human IgG1, kappa, V domains shown)
VH: EVQLVESGGGLVKPGGSLRLSCAASGFTFSHYDMNWVRQAPGKGLEWVSSISSSSSYIFYADSVKGRFTISRDNAKNSLLLQMNSLRAEDTAVYHCARDRGVGDTSDYYSFGLDVWGQGTMVTVSS
VL: B3 VL with E1D, L4M, D17E, S28N, A30S, S32T, S44A, S53C, F84Y, Q102R
B8: VG9B73 (antibody, human IgG1, kappa, V domains shown)
VH: EVQLVQSGGGLVKPGGSLRLSCAASGFTFSNYDMNWVRQAPGKGLEWVSSISSSSSYIYYADSVKGRFTISRDNARNSLFLQMSSLRAEDTAVYYCAREIGVTGTTYYQDYGMDVWGQGTTVTVSS
VL: B3 VL with L4M, D17E, V29F, A30S, S32N, S44A, V86L, Y98F, L106V
B9: VG9B428 (antibody, human IgG1, kappa)
heavy: not shown
light: EIVMTQSPSSVSASVGDRVTITCRASQGINSWLAWYQQKPGNAPKLLIYAASSLQSGVPSRFSGIGSGTDFIFTISSLQPEDFASYYCQQANSFPWTFGQGTKVEIKRTVAAPSVFIFPPSDEQLKSGTASVVCLLNNFYPREAKVQWKVDNALQSGNSQESVTEQDSKDSTYSLSSTLTLSKADYEKHKVYACEVTHQGLSSPVTKSFNRGEC
B10: VG9B54 (antibody, human IgG1, kappa, V domains shown)
VH: EVQLVESGGGLVKPGGSLRLSCAASGFAFSSYSLTWVRQAPGKGLEWVSSISSSSSYIFYADSVKGRFTISRDNAKNSLYLQMNSLRAEDTAVYYCATDGELGPFDYWGQGTTVTVSS
VL: B5 VL with L4M, T31S, L47R, F50Y, T52A, H88Y, L90Q, D106E

Changes are numbered by the printed parent chain.
For CD25+ (Vg9+ cells), flow staining in this document: test concentration or dose not given here.
For CD71+ (Vg9+ cells), flow staining in this document: test concentration or dose not given here.
For Granzyme B, Luminex (supernatant) in this document: unit not given here.
For IL6, Luminex (supernatant) in this document: unit not given here.
For TNFα, Luminex (supernatant) in this document: unit not given here.

One assay concerns the target T1, T cell receptor (TCR) Vγ9 (TRGV9). As to the kind of experiment: cell-based or functional assay.
With B1, the “CD25+ (Vg9+ cells), flow staining” value stood at 40.4%; the “CD71+ (Vg9+ cells), flow staining” value was determined as 97.7%; the “Granzyme B, Luminex (supernatant)” value worked out at 3240; the “IFNγ, Luminex (supernatant)” value was 2070. The “IL6, Luminex (supernatant)” value came to 591; the “TNFα, Luminex (supernatant)” value was 1100; the “Vg9 T cell %, flow staining” value was found to be 8.8%.
For the molecule B2, the “CD25+ (Vg9+ cells), flow staining” value came to 26%; the “CD71+ (Vg9+ cells), flow staining” value is 87.4%; the “Granzyme B, Luminex (supernatant)” value was 965; the “IFNγ, Luminex (supernatant)” value was 364. For the same molecule, the “IL6, Luminex (supernatant)” value was 100; the “TNFα, Luminex (supernatant)” value was 2110; the “Vg9 T cell %, flow staining” value came to 4.1%.
As for B3, the “CD25+ (Vg9+ cells), flow staining” value came out at 37.5%; the “CD71+ (Vg9+ cells), flow staining” value turned out to be 96.2%; the “Granzyme B, Luminex (supernatant)” value is 2520; the “IFNγ, Luminex (supernatant)” value was 1490. The “IL6, Luminex (supernatant)” value was 372; the “TNFα, Luminex (supernatant)” value was 125; the “Vg9 T cell %, flow staining” value stood at 10.7%.
For B4, the “CD25+ (Vg9+ cells), flow staining” value came out at 21.8%; the “CD71+ (Vg9+ cells), flow staining” value was 91.4%; the “Granzyme B, Luminex (supernatant)” value turned out to be 3480; the “IFNγ, Luminex (supernatant)” value came to 1170. Also, the “IL6, Luminex (supernatant)” value came out at 478; the “TNFα, Luminex (supernatant)” value was found to be 123; the “Vg9 T cell %, flow staining” value is 5.8%.
In the case of B5, the “CD25+ (Vg9+ cells), flow staining” value amounted to 29.4%; the “CD71+ (Vg9+ cells), flow staining” value worked out at 90.5%; the “Granzyme B, Luminex (supernatant)” value came out at 1420; the “IFNγ, Luminex (supernatant)” value stood at 305. Further, the “IL6, Luminex (supernatant)” value came to 294; the “TNFα, Luminex (supernatant)” value came to 2010; the “Vg9 T cell %, flow staining” value came to 7.2%.
Turning to B6, the “CD25+ (Vg9+ cells), flow staining” value was 41.4%; the “CD71+ (Vg9+ cells), flow staining” value amounted to 95.2%; the “Granzyme B, Luminex (supernatant)” value worked out at 5290; the “IFNγ, Luminex (supernatant)” value amounted to 2440. In addition, the “IL6, Luminex (supernatant)” value was found to be 1090; the “TNFα, Luminex (supernatant)” value amounted to 4130; the “Vg9 T cell %, flow staining” value was found to be 5.1%.
On to B7, for which the “CD25+ (Vg9+ cells), flow staining” value was 29.9%; the “CD71+ (Vg9+ cells), flow staining” value amounted to 98.5%; the “Granzyme B, Luminex (supernatant)” value worked out at 3700; the “IFNγ, Luminex (supernatant)” value is 1580. Further, the “IL6, Luminex (supernatant)” value came out at 440; the “TNFα, Luminex (supernatant)” value is 173; the “Vg9 T cell %, flow staining” value worked out at 7.8%.
Take B8: the “CD25+ (Vg9+ cells), flow staining” value is 30.6%; the “CD71+ (Vg9+ cells), flow staining” value is 94.1%; the “Granzyme B, Luminex (supernatant)” value came to 3370; the “IFNγ, Luminex (supernatant)” value was 1050. In addition, the “IL6, Luminex (supernatant)” value was 359; the “TNFα, Luminex (supernatant)” value was 136; the “Vg9 T cell %, flow staining” value came out at 13.8%.
Turning to B9, the “CD25+ (Vg9+ cells), flow staining” value came to 37%; the “CD71+ (Vg9+ cells), flow staining” value was 98.1%; the “Granzyme B, Luminex (supernatant)” value was 4120; the “IFNγ, Luminex (supernatant)” value was found to be 2000. The “IL6, Luminex (supernatant)” value amounted to 613; the “TNFα, Luminex (supernatant)” value stood at 390; the “Vg9 T cell %, flow staining” value came out at 5%.

A further assay deals with T2, T cell receptor (TCR) Vγ9 (TRGV9). As to the kind of experiment: cell-based or functional assay.
For B10, the “CD25+ (Vg9+ cells), flow staining” value turned out to be 32.4%; the “CD71+ (Vg9+ cells), flow staining” value came out at 93.3%; the “Granzyme B, Luminex (supernatant)” value is 3100; the “IFNγ, Luminex (supernatant)” value came to 1600. Besides, the “IL6, Luminex (supernatant)” value was determined as 761; the “TNFα, Luminex (supernatant)” value was 6100; the “Vg9 T cell %, flow staining” value came to 10.5%.
